Positions count from the first letter of the chain named. In names and notes the source's numbering stands.
T1: His-maltose-binding protein (MBP)-CHIP fusion protein, wild type (human), Q9UNE7
T1 chain: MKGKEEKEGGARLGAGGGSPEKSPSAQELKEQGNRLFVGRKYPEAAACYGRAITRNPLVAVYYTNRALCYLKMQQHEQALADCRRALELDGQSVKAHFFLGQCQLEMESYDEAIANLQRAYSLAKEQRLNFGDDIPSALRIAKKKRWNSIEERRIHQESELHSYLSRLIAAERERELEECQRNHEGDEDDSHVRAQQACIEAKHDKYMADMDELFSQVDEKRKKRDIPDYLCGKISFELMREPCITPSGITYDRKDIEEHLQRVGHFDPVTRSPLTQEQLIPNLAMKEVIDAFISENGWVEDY

B1: His-maltose-binding protein (MBP)-CHIP fusion protein, wild type, Q9UNE7-1 1-303 (enzyme)
chain: T1 chain
B2: His-MBP-CHIP fusion protein, K145Q (enzyme, human, UniProt Q9UNE7-1 1-303, looked up)
chain: T1 chain with K145Q
notes: CHIP (STUB1), human, full-length cDNA in pETM-41, pathogenic SCAR16 variant K145Q; Variant found in patients; made by site-directed mutagenesis; also called MBP-CHIP K145Q; source: E. coli BL21-CodonPlus (DE3)-RP, purified (Ni-NTA)
B3: His-MBP-CHIP fusion protein, M211I (enzyme, human, UniProt Q9UNE7-1 1-303, looked up)
chain: T1 chain with M211I
notes: CHIP (STUB1), human, full-length cDNA in pETM-41, pathogenic SCAR16 variant M211I; Variant found in patients; made by site-directed mutagenesis; also called MBP-CHIP M211I; source: E. coli BL21-CodonPlus (DE3)-RP, purified (Ni-NTA)
B4: His-MBP-CHIP fusion protein, S236T (enzyme, human, UniProt Q9UNE7-1 1-303, looked up)
chain: T1 chain with S236T
notes: CHIP (STUB1), human, full-length cDNA in pETM-41, pathogenic SCAR16 variant S236T; Variant found in patients; made by site-directed mutagenesis; also called MBP-CHIP S236T; source: E. coli BL21-CodonPlus (DE3)-RP, purified (Ni-NTA)
B5: His-MBP-CHIP fusion protein, T246M (enzyme, human, UniProt Q9UNE7-1 1-303, looked up)
chain: T1 chain with T246M
notes: CHIP (STUB1), human, full-length cDNA in pETM-41, pathogenic SCAR16 variant T246M; Variant found in patients; made by site-directed mutagenesis; also called CHIP-T246M; MBP-CHIP T246M; source: E. coli BL21-CodonPlus (DE3)-RP, purified (Ni-NTA)
B6: His-MBP-CHIP fusion protein, N65S (enzyme, human, UniProt Q9UNE7-1 1-303, looked up)
chain: T1 chain with N65S
notes: CHIP (STUB1), human, full-length cDNA in pETM-41, pathogenic SCAR16 variant N65S; Variant found in patients; made by site-directed mutagenesis; also called CHIP-N65S; MBP-CHIP N65S; source: E. coli BL21-CodonPlus (DE3)-RP, purified (Ni-NTA)

Assays:
[1] = target: T1, His-maltose-binding protein (MBP)-CHIP …; test: SEC; 1 mg MBP-CHIP fusion protein, Superdex 200 Increase 10/300 GL, 20 mM NaH2PO4 pH 7.4, 0.3 ml/min, 4°C; self-association (monomers, dimers, higher oligomers); conditions: remark: other sources report otherwise
[2] = target: the molecule itself; test: native gel or EMSA; 10 ug MBP fusion protein on a 12% NativePAGE Bis-Tris gel, Coomassie Blue staining; self-association (oligomeric states)
[3] = target: the molecule itself; test: SEC; 1 mg MBP-CHIP fusion protein, Superdex 200 Increase 10/300 GL, 20 mM NaH2PO4 pH 7.4, 0.3 ml/min, 4°C; self-association (monomers, dimers, higher oligomers)

Row | Binder | binding result [2] | other results
1 | B1 | – | stoichiometry N [1]: 2
2 | B2 | binds | –
3 | B3 | binds | –
4 | B4 | binds | –
5 | B5 | binds | –
6 | B6 | – | stoichiometry N [3]: 2

Source: PMC5408658, “In vitro characterization of six STUB1 variants in spinocerebellar ataxia 16 reveals altered structural properties for the encoded CHIP proteins” (Bioscience Reports, 2017)
